How the values were obtained:
[1] = biological target: T1, human CTLA-4 (human, UniProt P16410 36-223); assay: flow cytometry on CHO cells stably expressing CTLA4; vs CD80 WT IgV-Fc
T1 construct: also called huCTLA4

[2] = biological target: T2, human PD-L1 (human, UniProt Q9NZQ7 19-290); assay: flow cytometry on CHO cells stably expressing PD-L1; vs CD80 WT IgV-Fc
T2 construct: also called huPD-L1; CD274
T2 sequence (Q9NZQ7 19-290): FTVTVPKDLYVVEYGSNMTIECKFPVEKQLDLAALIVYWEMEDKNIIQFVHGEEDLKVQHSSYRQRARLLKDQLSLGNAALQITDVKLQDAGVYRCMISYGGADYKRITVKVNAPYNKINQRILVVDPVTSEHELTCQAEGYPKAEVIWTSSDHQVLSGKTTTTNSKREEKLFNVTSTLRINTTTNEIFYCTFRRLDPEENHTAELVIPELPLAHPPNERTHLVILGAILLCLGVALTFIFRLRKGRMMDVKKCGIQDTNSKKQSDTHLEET

[3] = biological target: T3, human CD28 (human, UniProt P10747 19-220); assay: flow cytometry on Jurkat cells (CD28)
T3 construct: Endogenous CD28 on Jurkat/IL2 reporter cells

[4] = biological target: T2, human PD-L1; assay: cell-based or functional assay
[5] = biological target: T1, human CTLA-4; assay: flow cytometry on CHO cells stably expressing CTLA4
[6] = biological target: T3, human CD28; assay: flow cytometry on Jurkat cells (CD28); vs CD80 WT IgV-Fc
[7] = biological target: T2, human PD-L1; assay: flow cytometry on CHO cells stably expressing PD-L1
[8] = biological target: T2, human PD-L1; assay: flow cytometry; PD-L1 MFI over CD28 MFI
[9] = biological target: T4, CD226 (Homo sapiens (Human), UniProt Q15762 19-336); assay: flow cytometry on CD226-transfected Expi293 cells
T4 construct: also called CD226 tfxn
T4 sequence: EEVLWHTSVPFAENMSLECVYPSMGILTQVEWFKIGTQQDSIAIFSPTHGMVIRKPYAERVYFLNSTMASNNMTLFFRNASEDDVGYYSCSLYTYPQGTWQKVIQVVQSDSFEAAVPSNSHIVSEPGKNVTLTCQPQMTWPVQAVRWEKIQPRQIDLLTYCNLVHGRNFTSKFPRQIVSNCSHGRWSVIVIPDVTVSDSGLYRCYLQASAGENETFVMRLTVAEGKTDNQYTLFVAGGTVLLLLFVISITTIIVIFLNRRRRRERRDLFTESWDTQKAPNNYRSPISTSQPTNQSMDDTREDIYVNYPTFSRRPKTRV

[10] = biological target: T5, CD96 (UniProt P40200 22-585, limits assumed); assay: flow cytometry on CD96-expressing cells
T5 construct: whole, on cells
T5 sequence (looked up): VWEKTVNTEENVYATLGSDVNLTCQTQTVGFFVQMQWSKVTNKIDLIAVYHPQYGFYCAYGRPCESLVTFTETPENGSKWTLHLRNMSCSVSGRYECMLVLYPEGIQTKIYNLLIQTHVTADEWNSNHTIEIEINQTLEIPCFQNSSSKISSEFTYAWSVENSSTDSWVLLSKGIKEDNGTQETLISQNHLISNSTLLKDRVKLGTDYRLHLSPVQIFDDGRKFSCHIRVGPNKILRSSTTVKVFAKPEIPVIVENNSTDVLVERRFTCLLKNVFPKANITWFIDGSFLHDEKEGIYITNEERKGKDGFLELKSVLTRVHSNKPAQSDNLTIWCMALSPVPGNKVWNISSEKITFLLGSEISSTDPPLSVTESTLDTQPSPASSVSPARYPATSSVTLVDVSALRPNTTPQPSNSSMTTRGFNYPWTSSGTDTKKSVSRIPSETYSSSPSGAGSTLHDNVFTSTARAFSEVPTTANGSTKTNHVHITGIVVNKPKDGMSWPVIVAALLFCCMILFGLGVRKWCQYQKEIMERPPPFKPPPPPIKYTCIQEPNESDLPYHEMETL

[11] = biological target: T4, CD226; assay: flow cytometry on CD226-transfected Expi293 cells; ratio to unmodified CD155 Fc fusion
[12] = biological target: T6, TIGIT (Homo sapiens (Human), UniProt Q495A1 23-244); assay: flow cytometry on TIGIT-transfected Expi293 cells; ratio to unmodified CD155 Fc fusion
T6 construct: also called TIGIT tfxn
T6 sequence: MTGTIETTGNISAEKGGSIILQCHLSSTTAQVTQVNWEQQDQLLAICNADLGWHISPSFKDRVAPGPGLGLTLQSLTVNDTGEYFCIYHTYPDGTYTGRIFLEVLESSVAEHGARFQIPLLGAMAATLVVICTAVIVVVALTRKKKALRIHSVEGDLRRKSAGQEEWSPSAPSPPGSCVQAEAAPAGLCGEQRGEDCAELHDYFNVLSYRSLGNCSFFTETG

[13] = biological target: T6, TIGIT; assay: flow cytometry on TIGIT-transfected Expi293 cells
[14] = biological target: T5, CD96; assay: flow cytometry on CD96-expressing cells; ratio to unmodified CD155 Fc fusion
[15] = biological target: T7, human CTLA-4 (CTLA4), expressed on CHO cells (human, UniProt P16410 36-223); assay: flow cytometry on CHO cells stably expressing human CTLA-4; MFI relative to WT CD80 ECD-Fc (R&D)
T7 construct: Full-length surface expression construct transduced by lentivirus into CHO cells; also called huCTLA4

[16] = biological target: T8, human PD-L1, expressed on CHO cells (human, UniProt Q9NZQ7 19-290); assay: flow cytometry on CHO cells stably expressing human PD-L1; MFI relative to WT CD80 ECD-Fc (R&D)
T8 construct: Full-length surface expression construct transduced by lentivirus into CHO cells; also called huPD-L1; CD274

[17] = biological target: T8, human PD-L1, expressed on CHO cells; assay: flow cytometry; ratio of MFI on PD-L1 CHO cells to MFI on Jurkat (CD28) cells
[18] = biological target: T8, human PD-L1, expressed on CHO cells; assay: flow cytometry on CHO cells stably expressing human PD-L1; PE anti-human Fc
[19] = biological target: T7, human CTLA-4 (CTLA4), expressed on CHO …; assay: flow cytometry on CHO cells stably expressing human CTLA-4; PE anti-human Fc
[20] = biological target: T9, human PD-L1 (human, UniProt Q9NZQ7 19-290); assay: flow cytometry, CHO cells expressing huPD-L1
T9 construct: also called huPD-L1; CD274
T9 sequence (Q9NZQ7 19-290): as the sequence (Q9NZQ7 19-290) above

[21] = biological target: human CD28 (human, UniProt P10747 19-220); assay: flow cytometry, Jurkat/IL2 reporter cells (endogenous CD28)
[22] = biological target: T10, human CTLA4 (human, UniProt P16410 36-223); assay: flow cytometry, CHO cells expressing huCTLA4
T10 construct: also called huCTLA4

[23] = biological target: T11, CD28, endogenously expressed on Jurkat/IL2 reporter cells (human, UniProt P10747 19-220); assay: flow cytometry on Jurkat/IL2 reporter cells (endogenous CD28); PE anti-human Fc
T11 construct: Endogenous CD28 of Jurkat/IL2 reporter cells

T8 sequence (Q9NZQ7 19-290): as the sequence (Q9NZQ7 19-290) above
T1 sequence (P16410 36-223): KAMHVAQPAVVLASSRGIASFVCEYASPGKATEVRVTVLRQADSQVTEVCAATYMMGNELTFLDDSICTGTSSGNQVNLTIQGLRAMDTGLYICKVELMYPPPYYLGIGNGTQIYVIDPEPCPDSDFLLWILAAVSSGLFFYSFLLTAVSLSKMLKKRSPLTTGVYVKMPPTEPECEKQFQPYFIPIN
T10 sequence (P16410 36-223): as above
T7 sequence (P16410 36-223): as above

B1: wild-type CD80 IgV-Fc (inert) with GSG4S linker, Example 16 (Fc fusion)
chain: VIHVTKEVKEVATLSCGHNVSVEELAQTRIYWQKEKKMVLTMMSGDMNIWPEYKNRTIFDITNNLSIVILALRPSDEGTYECVVLKYEKDAFKREHLAEVTLSVKADGSGGGGSEPKSSDKTHTCPPCPAPEAEGAPSVFLFPPKPKDTLMISRTPEVTCVVVDVSHEDPEVKFNWYVDGVEVHNAKTKPREEQYNSTYRVVSVLTVLHQDWLNGKEYKCKVSNKALPAPIEKTISKAKGQPREPQVYTLPPSREEMTKNQVSLTCLVKGFYPSDIAVEWESNGQPENNYKTTPPVLDSDGSFFLYSKLTVDKSRWQQGNVFSCSVMHEALHNHYTQKSLSLSPG
notes: also called CD80 WT IgV-Fc
[1]
  Fold change to WT CD80: 1 fold
[2]
  Fold change to WT CD80: 1 fold
[3]
  MFI at 33.3 nM: 56 MFI
[4]
  Fold Increase over WT CD80-IgV-Fc, Jurkat/IL2 + CHO/OKT3/PD-L1 Reporter Assay: 1 fold
  RLU, Jurkat/IL2 + CHO/OKT3/PD-L1 Reporter Assay, CD80 Conc 5.0 nM: 390 RLU
[5]
  MFI at 33.3 nM: 1200 MFI
[6]
  Fold change to WT CD80: 1 fold
[7]
  MFI at 33.3 nM: 47 MFI
[8]
  Ratio of PDL1:CD28: 1 ratio

B2: variant CD155 IgV-Fc A81V/L83P (Fc fusion, not shown: a dimerising Fc or GST)
chain: WPPPGTGDVVVQAPTQVPGFLGDSVTLPCYLQVPNMEVTHVSQLTWARHGESGSMAVFHQTQGPSYSESKRLEFVAARLGVEPRNASLRMFGLRVEDEGNYTCLFVTFPQGSRSVDIWLRVL
[9]
  MFI: 4170 MFI
[10]
  MFI: 2620 MFI
[11]
  MFI parental ratio: 1.1 fold
[12]
  MFI parental ratio: 1.1 fold
[13]
  MFI: 2910 MFI
[14]
  MFI parental ratio: 0.8 fold

B3: variant CD155 IgV-Fc P18T/F91S/R94H (Fc fusion, not shown: a dimerising Fc or GST)
chain: WPPPGTGDVVVQAPTQVTGFLGDSVTLPCYLQVPNMEVTHVSQLTWARHGESGSMAVFHQTQGPSYSESKRLEFVAARLGAELRNASLRMSGLHVEDEGNYTCLFVTFPQGSRSVDIWLRVL
[9]
  MFI: 3590 MFI
[10]
  MFI: 2510 MFI
[11]
  MFI parental ratio: 1 fold
[12]
  MFI parental ratio: 1.1 fold
[13]
  MFI: 2940 MFI
[14]
  MFI parental ratio: 0.8 fold

B4: variant CD155 IgV-Fc P18L/L79V/F91S (Fc fusion, not shown: a dimerising Fc or GST)
chain: WPPPGTGDVVVQAPTQVLGFLGDSVTLPCYLQVPNMEVTHVSQLTWARHGESGSMAVFHQTQGPSYSESKRLEFVAARVGAELRNASLRMSGLRVEDEGNYTCLFVTFPQGSRSVDIWLRVL
[9]
  MFI: 5140 MFI
[10]
  MFI: 3280 MFI
[11]
  MFI parental ratio: 1.4 fold
[12]
  MFI parental ratio: 1.5 fold
[13]
  MFI: 4070 MFI
[14]
  MFI parental ratio: 1.1 fold

B5: variant CD80 IgV-Fc E35D/M42V/M47V/E52D/L85Q (Fc fusion, not shown: small tags and cut ends; a dimerising Fc or GST)
chain: VIHVTKEVKEVATLSCGHNVSVEELAQTRIYWQKDKKMVLTVMSGDVNIWPDYKNRTIFDITNNLSIVILALRPSDEGTYECVVQKYEKDAFKREHLAEVTLSVKAD
notes: Fc fusion of the variant IgV
[15]
  Fold change to WT CD80: 1.44 fold
[16]
  Fold change to WT CD80: 1 fold
[17]
  Ratio of PDL1:CD28: 9 ratio
[18]
  MFI at 33.3 nM: 11900 MFI
[19]
  MFI at 33.3 nM: 226000 MFI

B6: variant CD80 IgV-Fc H18Y/A26E/E35D/D90G (Fc fusion, not shown: small tags and cut ends; a dimerising Fc or GST)
chain: VIHVTKEVKEVATLSCGYNVSVEELEQTRIYWQKDKKMVLTMMSGDMNIWPEYKNRTIFDITNNLSIVILALRPSDEGTYECVVLKYEKGAFKREHLAEVTLSVKAD
[20]
  MFI at 33.3 nM: 10000 MFI

B7: variant CD80 IgV-Fc H18Y/A26E/A71G/D90G (Fc fusion, not shown: small tags and cut ends; a dimerising Fc or GST)
chain: VIHVTKEVKEVATLSCGYNVSVEELEQTRIYWQKEKKMVLTMMSGDMNIWPEYKNRTIFDITNNLSIVILGLRPSDEGTYECVVLKYEKGAFKREHLAEVTLSVKAD
[21]
  MFI at 33.3 nM: 2000 MFI
[22]
  MFI at 33.3 nM: 19900 MFI

B8: variant CD80 IgV-Fc M47L/V68M/A71G/D90G (Fc fusion, not shown: small tags and cut ends; a dimerising Fc or GST)
chain: VIHVTKEVKEVATLSCGHNVSVEELAQTRIYWQKEKKMVLTMMSGDLNIWPEYKNRTIFDITNNLSIMILGLRPSDEGTYECVVLKYEKGAFKREHLAEVTLSVKAD
[21]
  MFI at 33.3 nM: 3610 MFI
[22]
  MFI at 33.3 nM: 17400 MFI
[20]
  MFI at 33.3 nM: 31100 MFI

B9: WT CD80 ECD-Fc (R&D) (Fc fusion)
chain: VIHVTKEVKEVATLSCGHNVSVEELAQTRIYWQKEKKMVLTMMSGDMNIWPEYKNRTIFDITNNLSIVILALRPSDEGTYECVVLKYEKDAFKREHLAEVTLSVKADFPTPSISDFEIPTSNIRRIICSTSGGFPEPHLSWLENGEELNAINTTVSQDPETELYAVSSKLDFNMTTNHSFMCLIKYGHLRVNQTFNWNTTKQEHFPDN
notes: Bought from R&D Systems; also called unmodified CD80-ECD-Fc fusion molecule (R&D Systems, USA); wild-type CD80-ECD-Fc; not shown: Fc and any linker of the bought R&D Systems protein are not described
[23]
  MFI at 33.3 nM: 18000 MFI

B10: CD80 E35D/D46V/M47L/V68M/L85Q/E88D IgV-Fc, GS(G4S)5 linker (Fc fusion, not shown: a dimerising Fc or GST)
chain: VIHVTKEVKEVATLSCGHNVSVEELAQTRIYWQKDKKMVLTMMSGVLNIWPEYKNRTIFDITNNLSIMILALRPSDEGTYECVVQKYDKDAFKREHLAEVTLSVKADGSGGGGSGGGGSGGGGSGGGGSGGGGS
[1]
  Fold change to WT CD80: 22.2 fold
[2]
  Fold change to WT CD80: 481 fold
[3]
  MFI at 33.3 nM: 143 MFI
[4]
  Fold Increase over WT CD80-IgV-Fc, Jurkat/IL2 + CHO/OKT3/PD-L1 Reporter Assay: 5.26 fold
  RLU, Jurkat/IL2 + CHO/OKT3/PD-L1 Reporter Assay, CD80 Conc 5.0 nM: 2050 RLU
[5]
  MFI at 33.3 nM: 26600 MFI
[6]
  Fold change to WT CD80: 2.6 fold
[7]
  MFI at 33.3 nM: 22400 MFI
[8]
  Ratio of PDL1:CD28: 157 ratio
